# From patent US20130189283A1 (Amgen, published 2013)
# T1: Soluble human IL-17R (huIL-17R-FpH) (human, UniProt Q96F46 33-320)
# T1 construct: also called IL-17R extracellular domain
# T1 sequence: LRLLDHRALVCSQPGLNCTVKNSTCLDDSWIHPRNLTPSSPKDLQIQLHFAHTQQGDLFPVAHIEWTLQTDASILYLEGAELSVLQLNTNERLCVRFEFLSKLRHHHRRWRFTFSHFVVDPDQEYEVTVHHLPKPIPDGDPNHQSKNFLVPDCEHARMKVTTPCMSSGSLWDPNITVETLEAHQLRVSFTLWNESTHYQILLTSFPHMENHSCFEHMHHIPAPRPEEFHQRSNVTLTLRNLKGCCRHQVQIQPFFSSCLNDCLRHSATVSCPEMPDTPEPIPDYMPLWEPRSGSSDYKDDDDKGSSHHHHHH
# Target: T2, Soluble human TR2 (huTR2 long-huFc (IgG1)) (human)
# T2 construct: also called Trail Receptor 2; TRAIL (huTR2)
# Assay: BIAcore solution equilibrium assay: antibody incubated with TR2, free TR2 read on immobilised antibody 16449
# T2 sequence (chain, as listed by the source limits assumed): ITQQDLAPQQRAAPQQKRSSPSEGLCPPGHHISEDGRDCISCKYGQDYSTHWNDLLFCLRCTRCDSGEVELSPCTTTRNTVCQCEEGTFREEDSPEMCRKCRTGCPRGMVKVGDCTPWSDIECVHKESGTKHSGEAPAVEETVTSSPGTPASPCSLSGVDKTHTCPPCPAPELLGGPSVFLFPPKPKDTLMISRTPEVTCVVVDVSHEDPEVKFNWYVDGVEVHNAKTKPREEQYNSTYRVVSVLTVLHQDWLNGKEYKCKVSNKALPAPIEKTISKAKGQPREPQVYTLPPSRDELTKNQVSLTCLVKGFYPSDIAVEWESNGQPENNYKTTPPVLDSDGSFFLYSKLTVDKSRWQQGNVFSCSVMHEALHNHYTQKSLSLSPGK
row,Binder,binding result
1,"Antibody 10183 (antibody, V domains shown) VH: QVQLQESGPGLVKPSQTLSLTCTVSGGSISSGDYFWSWIRQLPGKGLEWIGHIHNSGTTYYNPSLKSRVTISVDTSKKQFSLRLSSVTAADTAVYYCARDRGGDYAYGMDVWGQGTTVTVSS VL: EIVLTQSPGTLSLSPGERATLSCRASQGISRSRLAWYQQKPGQAPSLLIYGASSRATGIPDRFSGSGSGTDFTLTISRLEPEDFAVYYCQQFGSSPWTFGQGTKVEIK",no binding (tested: 50 µM antibody with 10 nM TR2)
2,"Antibody 4341 (antibody, human IgG1, kappa, V domains shown, also called LC:Y53E)) VH: QVQLQESGPGLVKPSQTLSLTCTVSGGSISSGDYFWSWIRQLPGKGLEWIGHIHNSGTTYYNPSLKSRVTISVDTSKKQFSLRLSSVTAADTAVYYCARDRGGDYAYGMDVWGQGTTVTVSS VL: EIVLTQSPGTLSLSPGERATLSCRASQGISRSELAWYQQKPGQAPSLLIYGASSRATGIPDRFSGSGSGTDFTLTISRLEPEDFAVYYCQQFGSSPWTFGQGTKVEIKR",no binding (tested: 50 µM antibody with 10 nM TR2)
3,"Antibody 10184 (antibody, V domains shown) VH: QVQLQESGPGLVKPSQTLSLTCTVSGGSISSGDYFWSWIRQLPGKGLEWIGHIHNSGTTYYNPSLKSRVTISVDTSKKQFSLRLSSVTAADTAVYYCARDRGGDYRYGMDVWGQGTTVTVSS VL: EIVLTQSPGTLSLSPGERATLSCRASQGISRSRLAWYQQKPGQAPSLLIYGASSRATGIPDRFSGSGSGTDFTLTISRLEPEDFAVYYCQQFGSSPWTFGQGTKVEIK",no binding (tested: 50 µM antibody with 10 nM TR2)
4,"Antibody 4241 (antibody, human IgG1, kappa, V domains shown, also called LC:Y53A)) VH: QVQLQESGPGLVKPSQTLSLTCTVSGGSISSGDYFWSWIRQLPGKGLEWIGHIHNSGTTYYNPSLKSRVTISVDTSKKQFSLRLSSVTAADTAVYYCARDRGGDYEYGMDVWGQGTTVTVSS VL: EIVLTQSPGTLSLSPGERATLSCRASQGISRSALAWYQQKPGQAPSLLIYGASSRATGIPDRFSGSGSGTDFTLTISRLEPEDFAVYYCQQFGSSPWTFGQGTKVEIKR",no binding (tested: 50 µM antibody with 10 nM TR2)

# Target: T1, Soluble human IL-17R (huIL-17R-FpH)
# Assay: BIAcore solution equilibrium assay: antibody incubated with IL-17R, free IL-17R read on immobilised antibody 16429
row,Binder,binding result
1,"Antibody 16435 (antibody, human IgG2, kappa, V domains shown, also called LC: P66L, D90E) VH: QVQLVQSGAEVKKPGASVKVSCKASGYTFTRYGISWVRQAPGQGLEWMGWISTYSGNTNYAQKLQGRVTMTTDTSTSTAYMELRSLRSDDTAVYYCARAQLYFDYWGQGTLVTVSS VL: EIVMTQSPATLSVSPGERATLSCRASQSVSSNLAWFQQKPGQAPRLLIYDASTRATGVPARFSGSGSGTEFTLTISSLQSEDFAVYYCQQYDNWPLTFGGGTKVEIKR",no binding (tested: 30 µM antibody with 30 nM IL-17R)
2,"Antibody 16438 (antibody, V domains shown) VH: QVQLVQSGAEVKKPGASVKVSCKASGYTFTRYGISWVRQAPGQGLEWMGWISTYSGNTNYAQKLQGRVTMTTDTSTSTAYMELRSLRSDDTAVYYCARRQQYFDYWGQGTLVTVSS VL: EIVMTQSPATLSVSPGERATLSCRASQSVSSNLAWFQQKPGQAPRLLIYDASTRATGVPARFSGSGSGTEFTLTISSLQSEDFAVYYCQQYDNWPLTFGGGTKVEIK",no binding (tested: 30 µM antibody with 30 nM IL-17R)
3,"Antibody 16439 (antibody, V domains shown) VH: QVQLVQSGAEVKKPGASVKVSCKASGYTFTRYGISWVRQAPGQGLEWMGWISTYSGNTNYAQKLQGRVTMTTDTSTSTAYMELRSLRSDDTAVYYCARRQQYFDYWGQGTLVTVSS VL: EIVMTQSPATLSVSPGERATLSCRASQSVSSNLAWFQQKPGQAPRLLIYDASTRATGVPARFSGSGSGTEFTLTISSLQSEDFAVYYCQQYDNAPLTFGGGTKVEIK",no binding (tested: 30 µM antibody with 30 nM IL-17R)
4,"Antibody 16441 (antibody, V domains shown) VH: QVQLVQSGAEVKKPGASVKVSCKASGYTFTRYGISWVRQAPGQGLEWMGWISTYSGNTNYAQKLQGRVTMTTDTSTSTAYMELRSLRSDDTAVYYCARAQQYFDYWGQGTLVTVSS VL: EIVMTQSPATLSVSPGERATLSCRASQSVSSNLAWFQQKPGQAPRLLIYDASTRATGVPARFSGSGSGTEFTLTISSLQSEDFAVYYCQQYDNWPLTFGGGTKVEIK",no binding (tested: 30 µM antibody with 30 nM IL-17R)
5,"Antibody 16444 (antibody, human IgG2, kappa, V domains shown, also called LC: P66L, D90E, W114A) VH: QVQLVQSGAEVKKPGASVKVSCKASGYTFTRYGISWVRQAPGQGLEWMGWISTYSGNTNYAQKLQGRVTMTTDTSTSTAYMELRSLRSDDTAVYYCARAQQYFDYWGQGTLVTVSS VL: EIVMTQSPATLSVSPGERATLSCRASQSVSSNLAWFQQKPGQAPRLLIYDASTRATGVPARFSGSGSGTEFTLTISSLQSEDFAVYYCQQYDNAPLTFGGGTKVEIKR",no binding (tested: 30 µM antibody with 30 nM IL-17R)
6,"Antibody 16440 (antibody, V domains shown) VH: QVQLVQSGAEVKKPGASVKVSCKASGYTFTRYGISWVRQAPGQGLEWMGWISTYSGNTNYAQKLQGRVTMTTDTSTSTAYMELRSLRSDDTAVYYCARAQQYFDYWGQGTLVTVSS VL: EIVMTQSPATLSVSPGERATLSCRASQSVSSNLAWFQQKPGQAPRPLIYDASTRATGVPARFSGSGSGTDFTLTISSLQSEDFAVYYCQQYDNWPLTFGGGTKVEIK",no binding (tested: 30 µM antibody with 30 nM IL-17R)
